B1: GDNF: recombinant human mature GDNF obtained from Genentech (protein, UniProt P39905 78-211, looked up)
Glial cell line-derived …: SPDKQMAVLPRRERNRQAAAANPENSRGKGRRGQRGKNRGCVLTAIHLNVTDLGLGYETKEELIFRYCSGSCDAAETTYDKILKNLSRNRRLVSDKVGQACCRPIAFDDDLSFLDDNLVYHILRKHSAKRCGCI

How the values were obtained:
Type in all cases: cell-based
[1] = tested on: NLF cells transformed with GFRα1; assay: Ga14-Elk/Ga14-Luc reporter in NLF neuroblastoma cells transformed with GFRα1; settings: factor for 24 hours, low-serum medium, FIG. 10B
Method: Thus, to directly test which receptor combinations can form functional receptors for artemin, expression plasmids for the individual GFRA coreceptors together with the Ga14-Elk/Ga14-Luc reporter system were transiently transformed into fibroblasts that stably express RET. […]
NLF neuroblastoma cells, which naturally express GFRα2/RET (Tansey et al., submitted), or the RET-3T3 cells were plated at 85,000 cells/well in 12-well plates, and cotransfected with the reporter plasmids Ga14-Luc and CMV-Ga14-Elk (250 ng/well and 50 ng/well, respectively), CMV-lacZ (50 ng/well) for transfection normalization, one of the CMV-GFRA expression plasmids (500 ng/well), and pBluescript (650 ng/well) as carrier for a total of 1.5 μg DNA/well using the Superfect reagent (Qiagen) according to the manufacturer's instructions. […] Measurement of luciferase and β-galactosidase activity was measured using a luminometer and performed as described (Svaren et al., EMBO J 17:6010-6019, 1998). The average luciferase activity of duplicate samples was normalized to β-galactosidase activity of the cotransformed lacZ reporter, and fold activation was calculated by dividing the normalized activity in factor-treated cells by that in the no treatment control.

[2] = tested on: SAN neuroblastoma cell line; assay: Responsiveness of a neuroblastoma cell line that does not express RET (SAN); settings: data not shown
[3] = target: T1, RET (Homo sapiens, UniProt P07949); assay: Western blot of RET phosphorylation and MAP kinase activation in NBL-S cells, with or without PI-PLC; settings: FIG. 9B
T1 construct: both the SH-SY5Y and NBL-S cell lines express GFRα1, GFRα2, and GFRα3, as well as RET; endogenous in cells; host or cells: NBL-S neuroblastoma cells
T1 sequence (P07949 29-1114): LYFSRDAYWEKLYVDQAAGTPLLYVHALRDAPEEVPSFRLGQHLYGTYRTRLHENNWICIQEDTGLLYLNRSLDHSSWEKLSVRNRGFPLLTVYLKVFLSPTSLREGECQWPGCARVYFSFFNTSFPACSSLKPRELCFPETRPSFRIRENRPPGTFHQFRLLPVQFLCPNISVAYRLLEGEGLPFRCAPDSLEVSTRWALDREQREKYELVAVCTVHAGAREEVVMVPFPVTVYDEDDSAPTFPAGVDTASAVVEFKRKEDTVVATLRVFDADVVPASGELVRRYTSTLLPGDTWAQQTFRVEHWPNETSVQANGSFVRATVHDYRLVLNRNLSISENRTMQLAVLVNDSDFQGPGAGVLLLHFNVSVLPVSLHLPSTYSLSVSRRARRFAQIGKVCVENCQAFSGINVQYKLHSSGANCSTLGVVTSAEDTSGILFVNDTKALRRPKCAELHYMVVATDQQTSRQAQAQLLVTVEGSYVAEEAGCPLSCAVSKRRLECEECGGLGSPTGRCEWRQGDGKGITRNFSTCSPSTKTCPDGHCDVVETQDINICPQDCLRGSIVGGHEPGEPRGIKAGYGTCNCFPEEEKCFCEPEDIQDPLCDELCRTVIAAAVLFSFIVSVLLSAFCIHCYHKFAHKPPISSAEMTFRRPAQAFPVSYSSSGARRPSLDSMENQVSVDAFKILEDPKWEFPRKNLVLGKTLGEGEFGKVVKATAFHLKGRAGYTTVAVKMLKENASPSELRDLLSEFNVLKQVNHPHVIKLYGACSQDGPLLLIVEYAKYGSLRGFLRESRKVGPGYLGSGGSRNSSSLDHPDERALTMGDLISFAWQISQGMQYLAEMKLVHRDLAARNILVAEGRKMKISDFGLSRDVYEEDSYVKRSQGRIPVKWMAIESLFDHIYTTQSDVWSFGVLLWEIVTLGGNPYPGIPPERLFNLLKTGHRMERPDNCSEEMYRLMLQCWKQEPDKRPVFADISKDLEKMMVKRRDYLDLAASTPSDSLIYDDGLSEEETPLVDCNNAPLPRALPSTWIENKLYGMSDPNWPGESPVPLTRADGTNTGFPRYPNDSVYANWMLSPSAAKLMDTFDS
Method: In brief, SCG neurons were dissected from postnatal day 1 (P1) rats and maintained in NGF-containing medium for 5 days, after which they were deprived of NGF by switching to NGF-free medium in the presence of anti-NGF antibodies. After 2 hours without NGF, neurons were switched to medium containing NGF, GDNF or artemin at 50 ng/ml for 20 minutes. Cells were washed in cold PBS, and collected in immunoprecipitation buffer (1 mM EDTA/1 mM EGTA/0.2 mM NaVO3/1 mM Pefabloc/1 uM pepstatin A/10 ug/ml leupeptin/2 ug/ml aprotinin/1% Triton X-100/0.5% Nonidet P-40/150 mM NaCl in 10 mM Tris, pH 7.4). The lysates were incubated with 30 μl agarose-conjugated anti-phosphotyrosine antibodies (Calbiochem) at 4° C. for 1 hr. Beads were then washed three times with immunoprecipitation buffer, resuspended in SDS sample buffer, and boiled for 5 min. Samples were separated using SDS-PAGE, and transferred to nitrocellulose membranes. Membranes were blocked for 1 hr at 25° C. in TBS containing 5% dry milk, incubated overnight 4° C. with a 1:300 dilution of anti-Ret antibody (C-19; Santa Cruz), then washed (3× in TBS containing 0.1% Tween-20) and incubated in a 1:10,000 dilution of anti-rabbit antibodies conjugated to HRP (Jackson Immunoresearch). Membranes were washed 3×, incubated with SuperSignal ULTRA (Pierce) for 5 minutes, then exposed to film. For MAP kinase (MAPK) assays, a portion of the total lysate wars removed before immunoprecipitation, separated by SDS-PAGE, and immunoblotted using an anti-phospho-MAP-kinase antibody (New England Biolabs).
NBL-S cells were plated at 3×10^5 cells/well in 6-well plates, and after 46 hr switched to low-serum (0.5%) medium for 2 hr, and then stimulated with NGF, GDNF or artemin (50 ng/ml) for 20 min. Cells were then collected and analyzed as above. For PI-PLC treatment, a parallel set of NBL-S cells were plated as above but treated with 500 mU/ml of PI-PLC (Boehringer-Mannheim) for 1 hr, and washed with PBS and stimulated with factors as above.

Row | Molecule | response of NLF cells transformed with GFRα1 (luciferase reporter) [1] | response of SAN cells [2] | downstream signaling (activation of the MAP kinase pathway) in NBL-S cells ([3]; 50 ng/ml for 20 min) | tyrosine-phosphorylation of RET in NBL-S cells ([3]; 50 ng/ml for 20 min) | effect of PI-PLC pretreatment on signaling in NBL-S cells ([3]; 500 mU/ml PI-PLC for 1 hr, then factor 50 ng/ml for 20 min)
1 | artemin: recombinant mature human artemin (FIG. 3A, SEQ ID NO:3) with 8-histidine tag, produced in E. coli; GDNF family neurotrophic factor | became responsive to artemin | did not respond | effective in eliciting downstream signaling | induced tyrosine-phosphorylation of RET | abolished artemin's ability to activate RET and all downstream signaling
2 | B1 | responded more intensely to GDNF | did not respond |  | induced tyrosine-phosphorylation of RET | 

From patent US20020002269A1, “ARTEMIN, A NEUROTROPHIC FACTOR” (priority 1998, published 2002)
